The values that follow come from paper PMC5836505.

For data set [1], the target named is T1, GST-FUS (Homo sapiens, UniProt P35637 1-526). Kind of data set: EMSA. On the technique in general: Mobility shift assays separate free from complexed probe on a gel.
Another data set addresses His-FUS (UniProt P35637 1-526). Kind of data set: single-molecule TIRF.
The target in data set [2] is T1, GST-FUS. In words: EMSA. The source holds these as a separate data set.
The target in data set [3] is T1, GST-FUS. In words: competition.

T1 sequence (P35637 whole entry): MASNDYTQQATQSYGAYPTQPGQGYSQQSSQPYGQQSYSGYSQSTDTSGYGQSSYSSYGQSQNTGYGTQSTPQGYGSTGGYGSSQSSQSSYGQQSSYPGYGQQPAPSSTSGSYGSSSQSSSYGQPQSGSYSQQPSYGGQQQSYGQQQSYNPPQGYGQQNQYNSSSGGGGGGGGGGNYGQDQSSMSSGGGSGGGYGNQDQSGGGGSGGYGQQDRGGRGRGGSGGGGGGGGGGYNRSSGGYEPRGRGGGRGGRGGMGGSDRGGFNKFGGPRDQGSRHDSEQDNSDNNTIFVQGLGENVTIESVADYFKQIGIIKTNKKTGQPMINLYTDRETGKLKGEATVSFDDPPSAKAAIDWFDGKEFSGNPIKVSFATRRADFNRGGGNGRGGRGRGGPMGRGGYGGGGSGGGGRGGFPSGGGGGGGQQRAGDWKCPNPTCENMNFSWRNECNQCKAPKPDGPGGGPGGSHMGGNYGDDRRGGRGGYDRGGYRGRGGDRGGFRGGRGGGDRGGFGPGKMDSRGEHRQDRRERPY
His-FUS, sequence (P35637 whole entry): as above

In the case of UUGUAUUUUGAGCUAGUUUGGUGAC (ssRNA) [GGUG oligo], the binding result with GST-FUS [1] is “binds”.

UAAUACUGCCGGGUAAUGAUGGA (ssRNA) [miR-200c (Cy5)]: the binding result with His-FUS and with GST-FUS [2] was “binds” throughout.

Take UAAUACUGCCGGGUAAUGAUGGA (ssRNA) [miR-200c (untagged)]: the binding result with GST-FUS [3] is given as “binds”.
